Data on one substance can be found in PMC7895384.

Assay [1] concerns the target Six4-HA (HA-tagged Six4, Six4-3xHA) (Drosophila). Briefly: co-IP; two of the three tagged proteins co-expressed in S2 cells; graded concentrations (150mM to 1200mM) of NaCl in the 1% NP-40 lysis buffer (S7C-E Fig; lanes with two proteins of S7F Fig, % co-IP quantified from band intensities, n = 3).
Assay [2] has the same target. Briefly: co-IP; Six4-HA, Myc-Erm and Flag-PntP1 all three co-expressed in S2 cells; IP with anti-HA or anti-Flag antibody; 150mM or 1200mM NaCl; % co-IP quantified from band intensities, normalized by the IPed protein, n = 3 (S7F Fig).

In turn, “Myc-Erm (Myc-tagged Earmuff) (from UniProt Q9VQ56 1-611) (natural protein)” registered a % co-IPed Myc-Erm with the anti-HA antibody (1200mM NaCl, without Flag-PntP1) in assay [1] of 6.7%. In assay [2], the % co-IPed Myc-Erm with the anti-HA antibody (1200mM NaCl, Flag-PntP1 co-expressed) is 13.6%.
